The results in this text go back to patent US20070253958A1 (Bristol-Myers Squibb, published 2007).

The target of experiment [1] is T1, FcγRI (CD64), on cells (UniProt P12314 16-374, limits assumed).
T1 construct: whole, on cells
Put plainly: cell-based or functional assay.

Experiment [2] concerns the target T2, FcγRIIIa (CD16), on cells (UniProt P08637 17-254, limits assumed).
T2 construct: whole, on cells; also called CD16A
Put plainly: flow cytometry on CD16A-expressing cells, mean fluorescence intensity; concentration not given. On the technique in general: A flow cytometer gives signals particle by particle.

Experiment [3] deals with T1, FcγRI (CD64), on cells. Put plainly: flow cytometry on CD64-expressing cells, mean fluorescence intensity; concentration not given.
For the next experiment, the target named is T3, CD20 (human, UniProt P11836).
T3 construct: full length, on cells; also called CD20 on cells; Raji cells expressing CD20
T3 sequence (membrane protein on cells, looked up): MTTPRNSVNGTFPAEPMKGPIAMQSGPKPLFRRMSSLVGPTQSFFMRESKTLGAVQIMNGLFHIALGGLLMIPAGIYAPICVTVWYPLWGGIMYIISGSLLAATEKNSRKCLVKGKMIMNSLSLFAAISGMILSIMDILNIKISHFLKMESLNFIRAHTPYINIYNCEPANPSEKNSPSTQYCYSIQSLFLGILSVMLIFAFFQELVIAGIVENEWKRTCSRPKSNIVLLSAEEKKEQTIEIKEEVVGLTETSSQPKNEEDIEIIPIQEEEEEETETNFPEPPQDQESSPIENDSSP
Put plainly: flow cytometry on CD20-expressing cells, mean fluorescence intensity; concentration not given.

Experiment [4] addresses T4, FcγRIIa-R131 (CD32, arginine at position 131), on cells (human, UniProt P12318 34-317).
T4 construct: whole, on cells; A database entry may carry H at that site, so the arginine must be set by hand; also called FcγRIIa-R131 allotype; IIA1.6 FcγRIIa-R131 transfectants
T4 sequence (looked up): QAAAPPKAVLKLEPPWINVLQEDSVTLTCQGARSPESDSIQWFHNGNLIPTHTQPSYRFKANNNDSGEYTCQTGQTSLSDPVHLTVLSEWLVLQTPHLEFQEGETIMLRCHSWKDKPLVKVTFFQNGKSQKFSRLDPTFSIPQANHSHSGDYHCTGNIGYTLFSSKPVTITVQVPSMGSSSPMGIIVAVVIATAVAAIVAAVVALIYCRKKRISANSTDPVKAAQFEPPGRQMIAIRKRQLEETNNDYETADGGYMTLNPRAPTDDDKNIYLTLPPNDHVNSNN
Put plainly: flow cytometry on transfected cells, mean fluorescence intensity; antibody concentration not given.

Experiment [5] has as its target T5, FcαR (CD89), on transfected IIA1.6 cells (UniProt P24071 22-287, limits assumed).
T5 construct: whole, on cells; also called Fcα receptor; FcαRI
Put plainly: flow cytometry on CD89-transfected cells, mean fluorescence intensity; concentration not given.

T1 sequence (P12314 16-374 limits assumed): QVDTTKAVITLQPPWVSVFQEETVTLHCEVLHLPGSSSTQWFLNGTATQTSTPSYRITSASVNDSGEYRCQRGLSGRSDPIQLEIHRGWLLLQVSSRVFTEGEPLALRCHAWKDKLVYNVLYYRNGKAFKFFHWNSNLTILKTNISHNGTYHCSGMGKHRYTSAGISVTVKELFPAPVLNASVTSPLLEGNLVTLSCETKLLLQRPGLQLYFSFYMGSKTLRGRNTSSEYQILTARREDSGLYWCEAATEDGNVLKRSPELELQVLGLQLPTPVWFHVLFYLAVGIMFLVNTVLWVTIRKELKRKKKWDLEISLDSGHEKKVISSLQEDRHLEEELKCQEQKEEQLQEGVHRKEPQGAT
T2 sequence (P08637 17-254 limits assumed): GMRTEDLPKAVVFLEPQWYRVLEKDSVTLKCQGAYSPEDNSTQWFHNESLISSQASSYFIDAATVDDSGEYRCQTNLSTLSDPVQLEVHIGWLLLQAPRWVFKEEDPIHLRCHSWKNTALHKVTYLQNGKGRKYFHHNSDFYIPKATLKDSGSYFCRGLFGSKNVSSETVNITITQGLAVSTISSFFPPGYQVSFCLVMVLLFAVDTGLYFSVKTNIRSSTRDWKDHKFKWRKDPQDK
T5 sequence (P24071 22-287 limits assumed): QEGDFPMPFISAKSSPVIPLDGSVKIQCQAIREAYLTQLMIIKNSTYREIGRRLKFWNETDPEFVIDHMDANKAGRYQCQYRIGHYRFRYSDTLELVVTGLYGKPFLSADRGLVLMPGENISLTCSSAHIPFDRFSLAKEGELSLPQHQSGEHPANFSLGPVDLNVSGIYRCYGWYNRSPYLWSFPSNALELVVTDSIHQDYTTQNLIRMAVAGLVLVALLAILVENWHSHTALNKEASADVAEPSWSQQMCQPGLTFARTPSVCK

For humanized CD64 mAb H22 (antibody), the reduction of FcγRI membrane expression with FcγRI (CD64), on cells [1] stood at 60%.

B1: human monoclonal antibody MDE-8 (whole IgG) (antibody, V domains shown)
VH: QVHLVESGGGVVQPGRSLRLSCAASGFTFSSYGMHWVRQAPGKGLEWVAVIWYDGSNYYYTDSVKGRFTISRDNSKNTLYLQMNSLRAEDTAVYYCARDLGAAASDYWGQGTLVTVSS
VL: AIQLTQSPSSLSASVGDRVTITCRASQGINSALAWYQQKPGKAPKLLIYDASSLESGVPSRFSGSGSGTDFTLTISSLQPEDFATYYCQQFNSYPHTFGQGTKLEIK
notes: Hybridoma-derived fully human IgG, kappa from HuMab HCo7 mice; a human IgG1 mAb served as its isotype control; also called HuMAb MDE-8; MDE-8 IgG
In the case of B1, the binding result in experiment [2] is “no binding”; in the experiment with FcγRI (CD64), on cells [3] it was “no binding”; with CD20 it was “no binding”; in experiment [4], “binds”; in experiment [5], “no binding”.
